The assay has as its system target antigen-expressing cell line. Nature of the assay: Jurkat NFAT-GFP assay, coculture with target cell lines expressing the respective target antigen (summary Table 10A). The class given is cell-based, human. Details: key: The signs +/−, +, 2+ etc. after the name of the cell lines indicate the relative degree of positivity on the Jurkat-NFAT-GFP assay as measured by the % GFP positive cells; +: relative degree of positivity on the Jurkat-NFAT-GFP assay as measured by the % GFP positive cells; 2+: relative degree of positivity on the Jurkat-NFAT-GFP assay as measured by the % GFP positive cells. The procedure, abridged:
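Coculture of SIR-bearing Jurkat NFAT-GFP reporters with target cells, ~1:2 E:T, ~4–18 h. FACS quantified % GFP+ cells, ranked semi-quantitatively against parental Jurkat-NFAT-GFP.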

B1: 101817-B02 (protein)
chain: MALPVTALLLPLALLLHAARPEIVLTQSPATLSLSPGERATLSCSASSSVSYMYWYQQKPGQAPRLLIYRTSNLASGIPARFSGSGSGTDFTLTISSLEPEDFAVYYCQQYHSYPTTFGQGTKVEIKRTVLEIQNPDPAVYQLRDSKSSDKSVCLFTDFDSQTNVSQSKDSDVYITDKCVLDMRSMDFKSNSAVAWSNKSDFACANAFNNSIIPEDTFFPSSDVPCDVKLVEKSFETDTNLNFQNLSVIGFRILLLKVAGFNLLMTLRLWSSRAKRSGSGVKQTLNFDLLKLAGDVESNPGPTSMDWIWRILFLVGAATGAHSFEEVQLVESGGGLVQPGGSLRLSCAASGFSFNTYAMNWVRQAPGKGLEWVSHIRSKSNNFATYYADSVKDRFTISRDNAKNSLYLQMNSLRAEDTAVYYCARQGGDFPMDYWGQGTLVTVSSTREDLKNVFPPEVAVFEPSKAEIAHTQKATLVCLATGFYPDHVELSWWVNGKEVHSGVCTDPQPLKEQPALNDSRYCLSSRLRVSATFWQNPRNHFRCQVQFYGLSENDEWTQDRAKPVTQIVSAEAWGRADCGITSASYHQGVLSATILYEILLGKATLYAVLVSALVLMAMVKRKDSRGRAKRSGSGATNFSLLKQAGDVEENPGPSRGHMTEYKPTVRLATRDDVPRAVRTLAAAFADYPATRHTVDPDRHIERVTELQELFLTRVGLDIGKVWVADDGAAVAVWTTPESVEAGAVFAEIGPRMAELSGSRLAAQQQMEGLLAPHRPKEPAWFLATVGVSPDHQGKGLGSAVVLPGVEAAERAGVPAFLETSAPRNLPFYERLGFTVTADVEVPEGPRTWCMTRKPGA
In the case of B1, the “NFAT-GFP ASSAY Positive Cell lines” value (coculture with HEL cells) is “HEL (+)”.

B2: 092517-H02 (protein)
chain: MALPVTALLLPLALLLHAARPLEGKPIPNPLLGLDSTGSGEDLKNVFPPEVAVFEPSKAEIAHTQKATLVCLATGFYPDHVELSWWVNGKEVHSGVCTDPQPLKEQPALNDSRYCLSSRLRVSATFWQNPRNHFRCQVQFYGLSENDEWTQDRAKPVTQIVSAEAWGRADCGITSASYHQGVLSATILYEILLGKATLYAVLVSALVLMAMVKRKDSRGRAKRSGSGATNFSLLKQAGDVEENPGPTSMALPVTALLLPLALLLHAARPDVVMTQSPSSLSASVGDRVTITCKASEDIYIRLAWYQQKPGKAPKLLIYAATSLETGVPSRFSGSGSGTDFTLTISSLQPEDFATYYCQQYWTTPWTFGGGTKVEIKGGGGSGGGGSGGGGSQVQLQESGPGLVKPSQTLSLTCTVSGYSITIDYTWNWIRQPPGKGLEWIGYITYSGSTDYNPSLKSRVLISVDTSKNQVSLKLSSVTAADTAVYYCARLGRRYALDYWGQGTTVTVSSTREQKLISEEDGSGIQNPDPAVYQLRDSKSSDKSVCLFTDFDSQTNVSQSKDSDVYITDKCVLDMRSMDFKSNSAVAWSNKSDFACANAFNNSIIPEDTFFPSSDVPCDVKLVEKSFETDTNLNFQNLSVIGFRILLLKVAGFNLLMTLRLWSSRAKRSGSGVKQTLNFDLLKLAGDVESNPGPSRGHMTEYKPTVRLATRDDVPRAVRTLAAAFADYPATRHTVDPDRHIERVTELQELFLTRVGLDIGKVWVADDGAAVAVWTTPESVEAGAVFAEIGPRMAELSGSRLAAQQQMEGLLAPHRPKEPAWFLATVGVSPDHQGKGLGSAVVLPGVEAAERAGVPAFLETSAPRNLPFYERLGFTVTADVEVPEGPRTWCMTRKPGA
With B2, under “coculture with HEL cells”, the “NFAT-GFP ASSAY Positive Cell lines” value is “HEL(+)”.

B3: 010417-U02 (protein)
chain: MALPVTALLLPLALLLHAARPLEGKPIPNPLLGLDSTGSGEDLKNVFPPEVAVFEPSKAEIAHTQKATLVCLATGFYPDHVELSWWVNGKEVHSGVCTDPQPLKEQPALNDSRYCLSSRLRVSATFWQNPRNHFRCQVQFYGLSENDEWTQDRAKPVTQIVSAEAWGRADCGITSASYHQGVLSATILYEILLGKATLYAVLVSALVLMAMVKRKDSRGRAKRSGSGATNFSLLKQAGDVEENPGPTSMALPVTALLLPLALLLHAARPDQIVLTQSPAIMSASPGEKVTISCSASSSVSYMYWYQQKPGSSPKPWIYRTSNLASGVPARFSGSGSGTSYSLTISNMEAEDAAAYYCQQYHSYPTTFGGGTKLEVKGGGGSGGGGSGGGGSEVQLVESGGGLVQPKGSLKLSCAASGFSFNTYAMNWVRQAPGKGLEWIAHIRSKSNNFATYYADSVKDRFSISRDASENILFLQMNNLKTEDTAMYYCVRQGGDFPMDYWGQGTSVTVSSTREAAAKEIVLTQSPATLSLSPGERATLSCSASSSVSYMHWYQQKPGQAPRLLIYDTSKLASGIPARFSGSGSGTDFTLTISSLEPEDVAVYYCFQGSVYPFTFGQGTKLEIKRGGGGSGGGGSGGGGSQVQLQESGPGLVKPSQTLSLTCTVSGGSISTSGMGVGWIRQHPGKGLEWIGHIWWDDDKRYNPALKSRVTISVDTSKNQFSLKLSSVTAADTAVYYCARMELWSYYFDYWGQGTLVTVSSTREQKLISEEDGSGIQNPDPAVYQLRDSKSSDKSVCLFTDFDSQTNVSQSKDSDVYITDKCVLDMRSMDFKSNSAVAWSNKSDFACANAFNNSIIPEDTFFPSSDVPCDVKLVEKSFETDTNLNFQNLSVIGFRILLLKVAGFNLLMTLRLWSSRAKRSGSGVKQTLNFDLLKLAGDVESNPGPSRGHMTEYKPTVRLATRDDVPRAVRTLAAAFADYPATRHTVDPDRHIERVTELQELFLTRVGLDIGKVWVADDGAAVAVWTTPESVEAGAVFAEIGPRMAELSGSRLAAQQQMEGLLAPHRPKEPAWFLATVGVSPDHQGKGLGSAVVLPGVEAAERAGVPAFLETSAPRNLPFYERLGFTVTADVEVPEGPRTWCMTRKPGA
For the molecule B3, the “NFAT-GFP ASSAY Positive Cell lines” value is recorded as “+/−” (coculture with HEL cells); “+” (coculture with NALM6 cells); “RAJI (+), NALM6” (coculture with RAJI cells).

B4: 092216-B03 (protein)
chain: MALPVTALLLPLALLLHAARPLEGKPIPNPLLGLDSTGSGEDLKNVFPPEVAVFEPSKAEIAHTQKATLVCLATGFYPDHVELSWWVNGKEVHSGVCTDPQPLKEQPALNDSRYCLSSRLRVSATFWQNPRNHFRCQVQFYGLSENDEWTQDRAKPVTQIVSAEAWGRADCGITSASYHQGVLSATILYEILLGKATLYAVLVSALVLMAMVKRKDSRGRAKRSGSGATNFSLLKQAGDVEENPGPTSMALPVTALLLPLALLLHAARPDQIVLTQSPAIMSASPGEKVTISCSASSSVSYMYWYQQKPGSSPKPWIYRTSNLASGVPARFSGSGSGTSYSLTISNMEAEDAAAYYCQQYHSYPTTFGGGTKLEVKGGGGSGGGGSGGGGSEVQLVESGGGLVQPKGSLKLSCAASGFSFNTYAMNWVRQAPGKGLEWIAHIRSKSNNFATYYADSVKDRFSISRDASENILFLQMNNLKTEDTAMYYCVRQGGDFPMDYWGQGTSVTVSSTREQKLISEEDGSGIQNPDPAVYQLRDSKSSDKSVCLFTDFDSQTNVSQSKDSDVYITDKCVLDMRSMDFKSNSAVAWSNKSDFACANAFNNSIIPEDTFFPSSDVPCDVKLVEKSFETDTNLNFQNLSVIGFRILLLKVAGFNLLMTLRLWSSRAKRSGSGVKQTLNFDLLKLAGDVESNPGPSRGHMTEYKPTVRLATRDDVPRAVRTLAAAFADYPATRHTVDPDRHIERVTELQELFLTRVGLDIGKVWVADDGAAVAVWTTPESVEAGAVFAEIGPRMAELSGSRLAAQQQMEGLLAPHRPKEPAWFLATVGVSPDHQGKGLGSAVVLPGVEAAERAGVPAFLETSAPRNLPFYERLGFTVTADVEVPEGPRTWCMTRKPGA
modifications: Synthetic Immune Receptor (SIR)
As for B4, the “NFAT-GFP ASSAY Positive Cell lines” value (coculture with HEL cells) is “HEL (+)”.

The values are drawn from patent US12269859B2, “Synthetic immune receptors and methods of use thereof” (Angeles Therapeutics, Inc., priority 2016, dated 2025).
